Experiment: soluble on expression in E. coli; label from the status in PepcDB or PDB records
With “MFKPELLSPAGTLKNMRYAFAYGADAVYAGQPRYSLRVRNNDFKMENLATGIEEAHALGKKLYVVSNIAPHNAKLKTYIKDMEPVVAMKPDALIMSDPGLIMMVREAFPEQVVHLSVQANAINWASVKFWQTQGIKRVILSRELSLDEIEEIRQRCPDIELEVFVHGALCMAYSGRCLLSGYINKRDPNQGTCTNACRWKYDVHEAQQTDSGDIIATPNAVQIETPTTLGAGAPTEQIFLLQEANRPGEYMPAFEDEHGTYIMNSKDLRAIQHVERLAKMGIDSLKIEGRTKSFYYVARTAQLYRQAIDDAASGKSFDRSLMNQLEGLAHRGYTEGFLRRHVHDEYQNYDYGYSVSDTQQFVGELTGKRNLAGLAEIEVKNKFSVGDSVELMTPQGNISLTIEQLENRKAEAVEAGLGSGHSVYLPVPKEVDLNHGILLRNLPQGQDTRNPHEAG” the “soluble on expression in E. coli” value was “not soluble”. For “MKKTHVTIGLSNPKSPTNVGAVMRAAGCYQVDDVRYTGERYDRAAKFQTDTKKVASKIPLTSVNCLLDDLPEDMKVVCVELAEGAVSLPQFQHPDKAIYVFGPEDGSITQQVADRADHVVYVPTVGCMNLAATVNVLLYDRLAK”, the “soluble on expression in E. coli” value was “not soluble”. In the case of “QNSWDSLQPDREQVIASLNVVELLKRHHYNKPPLNDERSAKIYDSYLKMLDPARMYFTAGDIAEFDRWRNRFDDFLKSGDLDPGFVIYKRHLDRLKGRLDYALAMLDKGVDKIDFSVDESLLIDREKAPWAKDTAELDDLWRKKVKDEVLRLKITGKDDKAIQEQLTKRYKNQLSRLKQTRSEDIFQAYINAFAQSYDPHTQYLSPDNAENFDINMSLSLEGIGAVLQSDNDYVKVVRLVPAGPAAKSKQIATSDKIIGVAQGKGEMVDVVGWRLDEVVKLIRGPKGSQVRLEVIPASNAPNDQTSKIVAITREAVKLEDQAAKKSIIKVDHEGRSYKLGVIDLPAFYLDFKAYRAGDPNYKSTTRDVKKLVAELQKDKVDGIVLDLRNNGGGSLQEATELTGLFIDQGPTVLVRNSDGRVDVLNDDEGKAFYTGPLAVLVNRLSASASEIFAGAMQDYHRALILGGQTFGKGTVQTIQPLNHGELKLTLAKFYRVSGQSTQHQGVIPDISYPSIVDDKEIGESALPDSMPWDTIRPVVKDEANPFKPFLAQLKAQHDARTENNADFVYARERLALAQELMKEKTVSLNEAKRRAQQTSIENRQLAMENALRKSKGQEPLKELKREDENALPEEDDKTKPQDDAYLTESGHILLDYLNLNSAVAK”, the “soluble on expression in E. coli” value is reported as “not soluble”. With “MEMEKEFEQIDKSGSWAAIYQDIRHEASDFPCRVAKLPKNKNRNRYRDVSPFDHSRIKLHQEDNDYINASLIKMEEAQRSYILTQGPLPNTCGHFWEMVWEQKSRGVVMLNRVMEKGSLKCAQYWPQKEEKEMIFEDTNLKLTLISEDIKSYYTVRQLELENLTTQETREILHFHYTTWPDFGVPESPASFLNFLFKVRESGSLSPEHGPVVVHCSAGIGRSGTFCLADTCLLLMDKRKDPSSVDIKKVLLDMRKFRMGLIATAEQLRFSYLAVIEGAKFIMGDSSVQDQWKELSHEDLEPPPEHIPPPPRPPKRILEPHNGKCREFFPN” the “soluble on expression in E. coli” value was “soluble”. For “MGSDKIHHHHHHMNICDLAPAYIRAISPYQPGKPISELAREMGMDEQSIIKLASNENPLGTSPMALNAMSKALDEVSLYPDGSGFELKAALSERYGVTSDQIVLGNGSNDVLELAARVFLKPGASTVYSQHAFAVYPLVTKAVGGIGISVPARNYGHDLDAMLDAVAPETRVVFIANPNNPTGTLLPADDVLRFLERVSPDVLVVLDEAYNEYLPPALKGDSIAWLKQFPNLLITRTFSKAYGMAGVRVGFGLGHPDVAGLMNRVRQPFNVNNIGLAGAVAALQDEEFVKRSYALNQAGMLQIVTGLRQMGIEYIPSYGNFLSFRVPGNVKAINESLLKQGVIVRPISIYEMPEHLRVTVGLESENEKFLKSLAIALETTEGAAADTIPEMAVSFPKVASGGTA”, the “soluble on expression in E. coli” value was “not soluble”. With “MLRIVLARSSRAMSSASPASASDSDTSVRKIGKALETYLKHSQQHVAMMEKHRAEFETGRRHLAKMMSLDIHELDQEAIDRAILYLFPSGLTDPNARPVMRPPDEILPKFQRFTFDEEGKPEGSRFFTLSPKIYGLLSDIGVKTHSVMKFYDEHVGSRSVNRSDLEPANLSGSQWVTADKLKKKLSEKFSKELYGQVIIAFEHLASLPGSAIEQKFLMEFREPMTASTGSKLFGPAIPEVHVCAVTNRRYAEVTTRCKDTRATVKVTDAGKGKFDIDGLQLHDFRHLQAREILLAPMIVSQSLGRFDVTATTSCISNTLPEAPNKAPLMRSGGMSALPRAVRHGTALCVAALQPEAIEPLRLSGLLTLDPRKNERSKVNQPGARAKWIWKRR” the “soluble on expression in E. coli” value was “not soluble”. With “MRIQIGELIRSGVLELGDGYRTKRSELSQFGYAIVRAGDVVEIGVTASDSEFVDQRFDKAIGRKTVRLGDVVITTKGTVGRVAEVSKVPNAGLAVYSPQVCYLRSLQPSILHQRYLKYLLMSPATKYSISTFASSSDMAPYLSLSDFKSMVVDLPSLEDQRAIADVLGALDDKIAENQRVIQLSEQLAMTFYRSTEKSESSLTFADVAGIYGGGTPSTKNPDFWDGEIRWATPTDITALKGPWLCGTARSITEEGLSKSSGSLHPEGSILMTSRATVGHVAFIDAPTTTNQGFINLVPQEAYRYWLYFQLKQRTSEFIAWANGATFLELSRGTFKKLPFQACAETELEKFNSVVAPLMKRVLKAQKENQVLAATRDELLPLLMNGKITVAEAKEAAGDVGVVKQNQQEEGDSSV” the “soluble on expression in E. coli” value was “not soluble”. With “MLTSKPEIKNSELNSYLVGGAVRDKLLNRPIKDEDYLVVGASIEQMIKLGYHQVGKDFPVFLHPKTKAEYALARTERKQGQGYTGFSCYFAPDVTIEQDLLRRDLTVNAMAMDHNGKIIDPYNGQNDLNDRILRHVSDAFIEDPLRVLRVARFAARYHKYGFTIADETLTLMQEISASGELKCLTPERVWQEMQLSLADGGANSDTNSGNPEVFFEVLQQCNALEELWPELAVLWGIPNPALWHPEICSGIHTMMVLQQAVLLTQAIPDEHSDHRTAVRFAALCHDLGKGVTSDKLWPSHKGHETSGLPLVERICGQLKVPSHYKQLALKVCEFHLHCHKAFELKASTLLKMFNQLDIWRKPEEFDLFLMACKSDFLGRLGFENRAYPQEQYLQAAVKAARKVTAQPFLEKGLQGLAIKEAMAKERLSVIANIKADFAHLNPTPQ” the “soluble on expression in E. coli” value was “not soluble”. In the case of “MISNKNIFNRFQQWMDTFLMLELQWFLIYANVANQMIVYGCCQMSKKTSNETPKVFLMLGHFFVSLKYPGATETKNWSKKLPFHYFHKYV”, the “soluble on expression in E. coli” value is reported as “not soluble”. In the case of “WRRLLESLQQGRRSEERNRLVVERTNQAILLLEPGAGTIIDANPATCVLLGFSRNELTGADIHALLSGPVQEVDSELERCLRETRELSLCHRDGAELVVEAMATQVPHGDDQALCLMFHDIT”, the “soluble on expression in E. coli” value is reported as “not soluble”. With “MGLKIGDIVSRKSYGSDILFKVVDIKYEKGRKIVVLKGICYRLEADAPETDLIVQPDSYVREYNARVNRAINEKLKSLNESLMREKTKKKFFRDAAKENNENFPRPGKVLHVDGDSDYLDTCMEEYRKLGMDAVGVYVKEKEQPLKIYNLLKEHKPDILVLTGHDGVIKSEKGYSDITNYRNSKYFVEAVREARRFDGNLDSLVIFAGACQSMFKKIIEAGANFASSPYRVLIHALDPVMVCEKIAFTSINQVISPQDVISKTITGVKGIGGIETRGKYRDGFPREPYNIK” the “soluble on expression in E. coli” value was “soluble”. In the case of “GKTFPSRAYIDGTLSARVIAHEFGHNLGLSHAKALDCGDASVSNNCSVIEYGDSYDVMGTPDMGYINTYYKERMGWLNDAESPNILTATQDGLYEIAEYETQDITQNIALKIPRGVNPNSGLKEWFYVEYRQAMGYDQFLDDRSYMLFRGDVTDGVIVRLVEEGAEESYILHMKPNSDYSQVYGRKDWKDTALPVGDSFTDP”, the “soluble on expression in E. coli” value is reported as “not soluble”. In the case of “MGSDKIHHHHHHMITTARQLKDLIRNMSKKKSADAQILMRNYMMERFLERISLSEYKNQFILKGGMLVAAMVGLDARATMDLDATIKGTNVSVEDVEMIISQIISIPLDDGVSFRVKRISEIMEEADYPGVRVSMETKFDGVITPLKIDISTGDVITPREIKYKFNLMLEDRTIEVWAYNLETVLAEKLETVVSRNVTNTRMRDFYDIYILQKLYGEQLQKQVLWTALVATAKKRGTLDLIEAEDIREIFDEIESSPVMETLWKTYQKNYSYAADISWHAIVKSICALYGSILENMYNT”, the “soluble on expression in E. coli” value is reported as “not soluble”. In the case of “MSLTPAPDLTLGTAVDWRFAATVGRRLARPGPPSTDYTRRQVIDELAGAATKAEPLVRQVTGLLTDGADDGRVPAARIVDRPEWIAAAAESMRVMMNGTERPRGFLTGRVTGAQTGAVLAYVSSGILGQYDPFATDRGAGAGCLLLVYPNVIAVERQLRIEPSDFRLWVCLHEVTHRVQFTANPWLPGYMSQALALLTRDTGDDLGQVLSRLADYARNRGNTASQADANSTGILGLVRAVQSEPQRQALDQLLVLGTLLEGHADHVMDAVGPMAVPSVATIRRRFDERRHRKQPPLQRLLRALLGLDAKLSQYTRGKAFVDQVVGRVGMARFNAVWTGPETLPLPVEIEEPQRWIDRVLEGHHHHHH”, the “soluble on expression in E. coli” value is reported as “soluble”. With “MDYVDYSNPDNPVITDEGERLAKIHSEADLLVAQCLKRGIWDNLDPAELAGVVSMCTFENRRETGGEAQAVTEAMADSMNSVERIWGELVEDERRHRLPITRQPEAGFATAIHQWASGAPLGYCMAAAAENGAELTPGDFVRWCRQVIDLLEQVAKTAYFDETTRNARQAIDAIRRGVVAIGSLEHHHHHH” the “soluble on expression in E. coli” value was “soluble”. With “MQRSLQIFCIMSAIAMAYSQGSRDDNQSAKRNDFSRDIMSFGKRSGNTADLYDRRIMAFGKRQPSYDRDIMSFGKRSAPSDFSRDIMSFGKRSSSMYDRDIMSFGKRSPVDYDRPIMAFGKRAEDYERQIMAFGRRK” the “soluble on expression in E. coli” value was “not soluble”. With “AIAGIQAEQSPQNYFEGTVSQPSSRFSTTHKGLSGGYNLGLLVKMELQHSFIGKDNGISYLETKLSGFHHLPVIP” the “soluble on expression in E. coli” value was “soluble”. In the case of “MPDNEVDLLFAQLSPEDLIEWSDYLPESFTDRALAQMGERQRQRFELYDQYSENEIGRYTDHQMLVLSDKATVAQAQRFFRRIELDCNDNLFIVDEADKYLGTVRRYDIFKHEPHEPLISLLSEDSRALTANTTLLDAAEAIEHSREIELPVIDDAGELIGRVTLRAATALVREHYEAQLMATAGMDESDDLFAPILKGAQRRAV”, the “soluble on expression in E. coli” value is reported as “soluble”. For “MSLKLTPEAAGTFAIAPTPFHDDGKIDDVSIDRLTDFYAEVGCEGVTVLGILGEAPKLDAAEAEAVATRFIKRAKSMQVIVGVSAPGFAAMRRLARLSMDAGAAGVMIAPPPSLRTDEQITTYFRQATEAIGDDVPWVLQDYPLTLSVVMTPKVIRQIVMDSASCVMLKHEDWPGLEKITTLRGFQKDGSLRPLSILCGNGGLFLDFEMERGADGAMTGYCFPDMLVDVVKLSKAGQRDLAHNLFDAHLPLIRYEHQQGVGLSVRKYVLKKRGLLSSSAQRKPGASLTDTAREEVDYLLSRLARVDKRADFEPRTKAAEEGHHHHHH”, the “soluble on expression in E. coli” value was “soluble”. With “QGWEKALYTLVTLYVTTRVIDAIHTRHMKLTAMIVTKKADEIKEAIYGKMVRGITTVPAKGAFTNEQKEMMIIVITRYELYDLEKIVKEVDPKAFTNIVQTTGIFGFFRKD” the “soluble on expression in E. coli” value was “not soluble”. In the case of “MEKDAQAGEPEEEEVDDELSSTDLYEDSMAEVTLNETRGGHDSDPFDRSGEYDEDVDLAAPPPITPDIPEIPADVLISLKNRAEGTAIDLKNLKNPFDDSQKVDESEVEAPLK”, the “soluble on expression in E. coli” value is reported as “soluble”. In the case of “FVAHSSGQEVKLDKAPIDRADKESLQRGAKGFVEYCLTCHGANFMRFNRHHDIGMSEDDIRADLIHTGQKTGDLMEAAMRKKEAEGWFGVVPPDLSVIARARGADWLYTYLRTFYQDTSTYSGWNNLIFDKVAMPHVLHHLQGWQVLEPGTGNLVQTKPGTMTKEEYDRFVADLVNYMVYLGEP”, the “soluble on expression in E. coli” value is reported as “not soluble”.
